Assay results reported in EP2654803B1, “RADIOLABELED HER2-BINDING PEPTIDE CONJUGATES” (General Electric Company, priority 2010, dated 2021).
Read-outs that look alike come from different tables or passages of the source.

Key:
SKOV3 tumors [1] = test system: SKOV3 tumors; set-up: species or system female CD-1 nude mice; conditions: mouse, in vivo
Experimental: In vivo studies were carried out with female CD-1 nude mice (Charles River Labs, Hopkinton, MA) with an age range between 6 and 15 weeks. Mice were housed in a ventilated rack with food and water ad libitum and a standard 12 hour day-night lighting cycle. For xenografts, animals were injected with 100 µl of cells in PBS. Cells were implanted subcutaneously in the right hindquarter. Implantation was performed under isoflurane anesthesia. For SKOV3, between 3 x 10^6 to 4 x 10^6 cells were implanted in each mouse. Under these conditions, useable tumors ([…]) were obtained in 3 to 4 weeks in greater than 80% of animals injected. Mice were given tail-vein injections of ∼1 ug of ^18F-labeled polypeptide (∼4 uCi/1 µg). Mice were placed in filter-paper lined cages until euthanasia. Three mice were euthanized at each timepoint and tissues of interest dissected and counted on a Perkin Elmer Wallac Wizard 1480 Gamma Counter. Data were collected for blood, kidney, liver, spleen, bone and injection site (tail). Urine from cages was pooled with the bladder and also counted. The remaining tissues were counted and the sum of all tissues plus urine for each animal was summed to provide the total injected dose. The percent injected dose for each organ was determined based on this total, and organs were weighed for determination of the percent injected dose per gram, (%ID/g). […]

SKOV3 tumors [2] = test system: SKOV3 tumors; set-up: species or system female CD-1 nude mice; conditions: mouse, in vivo; remark: listed apart in the source
Experimental: Synthesis of the radiolabeled polypeptide was performed using a one-step kit formulation produced in house (Chelakit A+) containing a lyophilized mixture of stannous chloride as a reducing agent for technetium, methylene diphosphonic acid, p-aminobenzoate as a free-radical scavenger and sodium bicarbonate/sodium carbonate (pH 9.2) as buffer. In rapid succession, 20 µL of a 2 µg/µL solution of polypeptide in saline was added to the Chelakit, followed immediately by Na^99mTcO4 (0.8 mCi, 29.6 MBq) in 0.080 mL of saline (0.15M NaCl) obtained from Cardinal Health (Albany, NY). The mixture was agitated once and allowed to sit at ambient temperature for 20 min. Upon completion, the crude radiochemical yield was determined by ITLC (Table 6 below according to ITLC-SG, Biodex, 0.9% NaCl). […]
Mice were given tail-vein injections of ∼1 ug of ^99mTc-labeled polypeptides (∼10 µCi/1 µg). […] Three mice were euthanized at each timepoint and tissues of interest dissected and counted on a Perkin Elmer Wallac Wizard 1480 Gamma Counter. […] Urine from cages was pooled with the bladder and also counted. The remaining tissues were counted and the sum of all tissues plus urine for each animal was summed to provide the total injected dose. The % injected dose for each organ was determined based on this total, and organs were weighed for determination of the % injected dose per gram, (%ID/g). […]

In the case of “Z02891 (SEQ. ID No. 2) 18F-fluorobenzyl oxime: Z02891-ONH2 (Mal-AO on cysteine) reacted with [18F]4-fluorobenzaldehyde”, the “kidneys, ID/organ” value (SKOV3 tumors [1]) is reported as 0.95±0.07 ID/organ and the “uptake in the liver” value (SKOV3 tumors [1]) is reported as “ca. 1.8 %ID/organ”.

With “Z02891 (SEQ. ID No. 2) cPN216: Z02891 polypeptide conjugated with Mal-cPN216 via a terminal cysteine and labeled with 99mTc” the “kidneys, ID/organ” value (SKOV3 tumors [2]) was 10.58 ± 2.96 ID/organ and the “uptake in the liver” value (SKOV3 tumors [2]) was 12 %ID/organ.
